Experiment [1] deals with T1, human Tissue Factor on MDA-MB-231 cells (human, UniProt P13726 33-295). Nature of the experiment: cell-based or functional assay.
Experiment [2] has as its target T2, cynomolgus TF ECD-His6 (cynomolgus monkey (Macaca fascicularis)).
T2 construct: made in Expi293 cells; also called TF-His; cTF
T2 chain: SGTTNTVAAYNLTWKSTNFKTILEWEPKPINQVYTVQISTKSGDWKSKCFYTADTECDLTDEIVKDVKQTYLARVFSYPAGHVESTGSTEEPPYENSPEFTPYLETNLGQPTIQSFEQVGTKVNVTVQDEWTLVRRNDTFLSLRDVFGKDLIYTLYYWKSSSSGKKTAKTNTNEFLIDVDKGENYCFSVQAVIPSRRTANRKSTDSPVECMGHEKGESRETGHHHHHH
Briefly: BLI (ForteBio Octet).

In experiment [3] the target is T3, human TF ECD-His6 (human, UniProt P13726 33-251).
T3 construct: made in Expi293 cells; the entry holds the ECD with the C-terminal TG-His6; also called TF-His; hTF
Briefly: BLI (ForteBio Octet). (Biolayer interferometry detects binding as a change in optical thickness at a sensor tip.)

The target in experiment [4] is T2, cynomolgus TF ECD-His6. Nature of the experiment: SPR (Biacore), antibody on chip, TF-His titrated. For orientation: SPR reads the build-up and loss of mass on a sensor chip optically.
The target of experiment [5] is T3, human TF ECD-His6. Briefly: SPR (Biacore), antibody on chip, TF-His titrated.
In experiment [6] the target is rTF (rat TF) on HEK293 cells (rat, UniProt P42533 29-252). Nature of the experiment: live cell staining of transfected HEK293, flow cytometry. On the technique in general: In flow cytometry, cells or beads pass a laser one at a time.
Chain of rTF (rat TF) on HEK293 cells (P42533 29-252): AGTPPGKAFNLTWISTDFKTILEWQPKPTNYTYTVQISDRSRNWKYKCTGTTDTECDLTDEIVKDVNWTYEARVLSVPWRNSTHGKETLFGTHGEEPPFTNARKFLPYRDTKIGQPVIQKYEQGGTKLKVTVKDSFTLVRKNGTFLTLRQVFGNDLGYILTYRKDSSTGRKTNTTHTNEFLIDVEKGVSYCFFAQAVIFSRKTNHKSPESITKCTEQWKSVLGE
Experiment [7] has as its target T4, mouse TF ECD-His6 (mouse, UniProt P20352 29-251).
T4 construct: made in Expi293 cells; also called TF-His; mTF
Nature of the experiment: BLI (ForteBio Octet).

The target of experiment [8] is relipidated TF (UniProt P13726 33-295, limits assumed). Nature of the experiment: cell-based or functional assay.
Experiment [9] concerns the target T1, human Tissue Factor on MDA-MB-231 cells. Briefly: cell-based or functional assay. The source holds these as a separate data set.
The target in experiment [10] is T5, pig TF-His (pig (Sus scrofa)).
T5 construct: also called pig TF ECD-His; pTF
T5 chain: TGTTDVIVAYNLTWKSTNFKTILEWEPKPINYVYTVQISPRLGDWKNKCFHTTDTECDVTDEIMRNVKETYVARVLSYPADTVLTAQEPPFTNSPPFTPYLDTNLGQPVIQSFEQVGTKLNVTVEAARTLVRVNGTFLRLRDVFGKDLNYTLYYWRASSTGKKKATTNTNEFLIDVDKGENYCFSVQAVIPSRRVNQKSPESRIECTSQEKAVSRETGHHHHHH
Nature of the experiment: SPR (Biacore), antibody captured by anti-human IgG on CM5 chip, pig TF-His in solution, 1:1 model.

B1: 5G9 (humanized TF8-5G9, CNTO 860) (antibody, V domains shown)
VH: QVQLVESGGGVVQPGRSLRLSCKASGFNIKDYYMHWVRQAPGKGLEWIGLIDPENGNTIYDPKFQGRFTISADNSKNTLFLQMDSLRPEDTAVYYCARDNSYYFDYWGQGTPVTVSS
VL: DIQMTQSPSSLSASVGDRVTITCKASQDIRKYLNWYQQKPGKAPKLLIYYATSLADGVPSRFSGSGSGTDYTFTISSLQPEDIATYYCLQHGESPYTFGQGTKLEIT
On to B1, for which, in [1], the “% FXa, 12.5 nM Ab” value amounted to 37%; the “% FXa, 25 nM Ab” value is 33%; the “% FXa, 50 nM Ab” value is 30%; the “% FXa, 100 nM Ab” value worked out at 30%.

B2: 29E (antibody, human IgG1, V domains shown)
VH: QVQLVESGGGVVQPGRSLRLSCAASGFTFRSYGMHWVRQAPGKGLEWVAVITYDGINKYYADSVEGRFTISRDNSKNTLYLQMNSLRAEDTAVYYCARDGVYYGVYDYWGQGTLVTVSS
VL: not shown
notes: human IgG1
The term Kd denotes a measure of binding affinity in units of concentration. In the case of B2, the Kd was 15 nM in experiment [2], 2.32 nM in experiment [3], 5.06 nM in [4] and 0.47 nM in [5]. Further, the binding result in experiment [6] was “no binding (tested: 15 µg/ml (100 nM))”.

B3: 43B1 (antibody, human IgG1, V domains shown)
VH: QVQLQESGPGLVKPSQTLSLTCTVSGGSISSGQYWSWIRQHPGKGLEWIGEIYYSGSTRYNPSLKSRVTISVDTSKNQFSLKLSSVTAADTAVYYCARDAPYYYGGGYYYYMDVWGKGTTVTVSS
VL: EIVLTQSPGTLSLSPGERATLSCRASESVDSSYLAWYQQKPGQAPRLLIYGASTRQTGIPDRFSGSGSGTDFTLTISRLEPEDFAVYYCQQAGVVPYTFGGGTKVEIK
notes: human IgG1
Take B3: the Kd in [7] worked out at 72.1 nM. Further, in experiment [8], the “TGA without pre-incubation, 10 nM Ab: % Peak IIa” value was 87%; the “TGA without pre-incubation, 10 nM Ab: ETP” value stood at 2290 nM·min; the “TGA without pre-incubation, 10 nM Ab: Lag Time” value worked out at 4.9 min; the “TGA without pre-incubation, 10 nM Ab: Peak IIa” value came out at 299 nM. Further, in experiment [8], the “TGA without pre-incubation, 10 nM Ab: ttPeak” value was 8.9 min; the “TGA without pre-incubation, 50 nM Ab: ETP” value came out at 2200 nM·min; the “TGA without pre-incubation, 50 nM Ab: Lag Time” value came out at 5.2 min; the “TGA without pre-incubation, 50 nM Ab: Peak IIa” value is 232 nM. In [8], the “TGA without pre-incubation, 100 nM Ab: ETP” value amounted to 2170 nM·min; the “TGA without pre-incubation, 100 nM Ab: Lag Time” value is 5.2 min; the “TGA without pre-incubation, 100 nM Ab: Peak IIa” value turned out to be 221 nM.

B4: 43B (antibody, human IgG1, V domains shown)
VH: QVQLQESGPGLVKPSQTLSLTCTVSGGSISSGQYWSWIRQHPGKGLEWIGEIYYSGSTRYNPSLKSRVTISVDTSKNQFSLKLSSVTAADTAVYYCARDAPYYYGGGYYYYMDVWGKGTTVTVSS
VL: EIVLTQSPGTLSLSPGERATLSCRASQSVSSSYLAWYQQKPGQAPRLLIYGASSRATGIPDRFSGSGSGTDFTLTISRLEPEDFAVYYCQQVGVVPYTFGGGTKVEIK
notes: human IgG1
For B4, the Kd in experiment [2] came out at 3.4 nM; in [3], 2.4 nM; in [7], 161 nM; in experiment [4] it was 5.64 nM; in experiment [5], 1.75 nM.

B5: 43D (antibody, V domains shown)
VH: QVQLQQWGAGLLKPSETLSLTCAVYGGSLSGYYWSWIRQPPGKGLEWIGEIGASGSTRYNPSLKSRVTISVDTSKNQFSLKLSSVTAADTAVYYCARDTPYYYEGGYYYYMDVWGKGTTVTVSS
VL: EIVLTQSPGTLSLSPGERATLSCRASQSVSSSYLAWYQQKPGQAPRLLIYGASSRATGIPDRFSGSGSGTDFTLTISRLEPEDFAVYYCQQVGVVPYTFGGGTKVEIK
As to B5, the “% FXa, 25 nM Ab” value in [1] is 109%. Moreover, in [9], the “% IL8, 2.56 nM Ab” value came to 58%; the “% IL8, 6.4 nM Ab” value was determined as 21%; the “% IL8, 40 nM Ab” value came out at 5%; the “% IL8, 100 nM Ab” value came out at 5%.

B6: 43D (antibody, human IgG1, V domains shown)
VH: QVQLQQWGAGLLKPSETLSLTCAVYGGSLSGYYWSWIRQPPGKGLEWIGEIGASGSTRYNPSLKSRVTISVDTSKNQFSLKLSSVTAADTAVYYCARDTPYYYEGGYYYYMDVWGKGTTVTVSS
VL: EIVLTQSPGTLSLSPGERATLSCRASQSVSSSYLAWYQQKPGQAPRLLIYGASSRATGIPDRFSGSGSGTDFTLTISRLEPEDFAVYYCQQVGVVPYTFGGGTKVEIK
notes: human IgG1
As to B6, the Kd in experiment [2] came to 4.12 nM; in [3] it was 3.84 nM; in [7], 281 nM; in experiment [4], 5.66 nM; in experiment [5], 2.09 nM.

B7: 43B7 (antibody, human IgG1, V domains shown)
VH: QVQLQESGPGLVKPSQTLSLTCTVSGGSISSGQYWSWIRQHPGKGLEWIGEIYYSGSTRYNPSLKSRVTISVDTSKNQFSLKLSSVTAADTAVYYCARDAPYYYGGGYYYYMDVWGKGTTVTVSS
VL: EIVLTQSPGTLSLSPGERATLSCRASESVDSSYLAWYQQKPGQAPRLLIYGADSRATGIPDRFSGSGSGTDFTLTISRLEPEDFAVYYCQQDGVVPYTFGGGTKVEIK
notes: human IgG1
Regarding B7, the Kd in [2] came to 0.94 nM; in [3], 0.86 nM; in experiment [7] it was 360 nM; in [4] it was 0.24 nM; in [5], 0.14 nM.

B8: 54E (antibody, human IgG1, V domains shown)
VH: QVQLVQSGAEVKKPGASVKVSCKASGYTFANYYMHWVRQAPGQGLEWMGIINPSGGITVYAQKFQGRVTMTRDTSTSTVYMELSSLRSEDTAVYYCARGGSKVAALAFDIWGQGTMVTVSS
VL: DIQMTQSPSSLSASVGDRVTITCQASQDISNSLNWYQQKPGKAPKLLIYDASNLETGVPSRFSGSRSGTDFTFTISSLQPEDIATYYCQQYNFHPLTFGGGTKVEIK
notes: human IgG1
For B8, the Kd in experiment [2] came to 4.16 nM; in [3], 1.59 nM; in experiment [4], 1.83 nM; in [5], 0.42 nM. Moreover, the binding result in experiment [6] is “no binding (tested: 15 µg/ml (100 nM))”.

B9: M1593 (antibody, V domains shown)
VH: EVQLVQSGAEVKKPGESLRISCKGSGYTFAPYWIEWVRQMPGKGLEWMGDILPGTGFTTYSPSFQGHVTISADKSISTAYLQWSSLKASDTAMYYCARSGYYGNSGFAYWGQGTLVTVSS
VL: DIVMTQTPLSLPVTPGEPASISCKSSQSLLSSGNQKNYLTWYLQKPGQSPQLLIYWASTRESGVPDRFSGSGSGTDFTLKISRVEAEDVGVYYCQNDYTYPLTFGQGTKLEIK
notes: also called 10H10; 10H10 (M1593)
For the molecule B9, the binding result in [6] was “no binding (tested: 15 µg/ml (100 nM))”.

B10: 25A5 (antibody, human IgG1, kappa, V domains shown)
VH: QVQLVQSGAEVKKPGASVKVSCKASGYTFDVYGISWVRQAPGQGLEWMGWIAPYSGNTNYAQKLQGRVTMTTDTSTSTAYMELRSLRSDDTAVYYCARDAGTYSPFGYGMDVWGQGTTVTVSS
VL: DIQMTQSPSTLSASVGDRVTITCRASESISNWLAWYQQKPGKAPKLLIYKAYSLEYGVPSRFSGSGSGTEFTLTISSLQPDDFATYYCQQFQKLPPFTFGGGTKVEIKR
notes: human IgG1
Regarding B10, the Kd amounted to 0.64 nM in experiment [3], 188 nM in experiment [7], 0.04 nM in experiment [4] and 0.08 nM in experiment [5].

B11: 25G (antibody, human IgG1, kappa, V domains shown)
VH: QVQLVQSGAEVKKPGASVKVSCKASGYTFRSYGISWVRQAPGQGLEWMGWVAPYNGNTNYAQKLQGRVTMTTDTSTSTAYMELRSLRSDDTAVYYCARDAGTYSPYGYGMDVWGQGTTVTVSS
VL: DIQMTQSPSTLSASVGDRVTITCRASQSISSWLAWYQQKPGKAPKLLIYKASSLESGVPSRFSGSGSGTEFTLTISSLQPDDFATYYCQQFQSLPPFTFGGGTKVEIKR
notes: human IgG1
On to B11, for which the Kd came to 17.5 nM in experiment [2]; 21.9 nM in [3]; 114 nM in experiment [7]; 18 nM in experiment [4]; 23 nM in [5].

B12: 25A3 (antibody, human IgG1, kappa, V domains shown)
VH: QVQLVQSGAEVKKPGASVKVSCKASGYTFDVYGISWVRQAPGQGLEWMGWIAPYSGNTNYAQKLQGRVTMTTDTSTSTAYMELRSLRSDDTAVYYCARDAGTYSPFGYGMDVWGQGTTVTVSS
VL: DIQMTQSPSTLSASVGDRVTITCQASQSINNWLAWYQQKPGKAPKLLIYKAYNLESGVPSRFSGSGSGTEFTLTISSLQPDDFATYYCQLFQSLPPFTFGGGTKVEIKR
notes: Human IgG1; also called antibody 25A3
In the case of B12, binding in [10] was characterised by a dissociation constant (Kd) of 5.5 nM.

B13: 25A5-T (antibody, human IgG1, kappa, V domains shown)
VH: QVQLVQSGAEVKKPGASVKVSCKASGYTFDAYGISWVRQAPGQGLEWMGWIAPYSGNTNYAQKLQGRVTMTTDTSTSTAYMELRSLRSDDTAVYYCARDAGTYSPFGYGMDVWGQGTTVTVSS
VL: DIQMTQSPSTLSASVGDRVTITCRASESISNWLAWYQQKPGKAPKLLIYKAYSLEYGVPSRFSGSGSGTEFTLTISSLQPDDFATYYCQQFQKLPPFTFGGGTKVEIKR
notes: human IgG1
As to B13, the binding result in [6] is reported as “no binding (tested: 15 µg/ml (100 nM))”.
